Results from patent US8835609B2, “Antigen binding sites to non-functional oligomeric P2X7 receptors and methods of use thereof” (Biosceptre International Limited, priority 2009, dated 2014).

Key:
[1] = system: 4T1 mouse breast tumour cells; assay: 4T1 syngeneic xenograft model, lung metastases; assay type: in vivo; set-up: number of lung metastases, % of control / average metastasis volume, % of control / reduction of total metastasis volume / total metastasis volume, % of control: concentration or dose not given beside the values; settings: Day 14
Protocol: Reagents for culture of 4T1 mouse breast tumour cells were obtained from the following suppliers: RPMI 1640 cell culture medium, FCS, Glutamax, HBSS and penicillin-streptomycin from Invitrogen Australia (Mt Waverley, VIC, Australia); and Trypan Blue from Sigma-Aldrich (Castle Hill, NSW, Australia). Matrigel™ was obtained from BD Biosciences (North Ryde, NSW, Australia).
Tumour cells (Passage 2 from working stock) were cultured in RPMI 1640 cell culture medium, supplemented with 10% FCS, 1% Glutamax and 1% penicillin-streptomycin. The cells were harvested by trypsinisation, washed twice in HBSS and counted. The cells were then resuspended in HBSS:Matriger™ (1:1, v/v) to a final concentration of 5×10^7 cells/mL.
(§1) Dosing occurred every 3 days at antibody concentrations of 1 or 10 mg/kg i.v. or with PBS for treatment control or Sorafenib at 5 mL/kg daily as a positive control in the Lewis Lung model. Mice were randomised into equal groups of 10 mice, based on tumour volume on Day 0 of the studies.
(§2) Mice were anaesthetised for blood collection and euthanised by exsanguination via terminal cardiac bleed 48 hours post-final dose, on Days 11 or 14 post-initial treatment.
(§3) The lungs were excised from all mice. Lung surface metastases were counted and were categorised according to size: small (<1 mm), medium (≧1 mm and <3 mm) and large (≧3 mm). Excised lungs were preserved in 10% neutral buffered formalin.

[2] = molecular target: T1, red blood cells expressing function-capable P2X7 receptor (Mus musculus, UniProt Q9Z1M0); assay: Binding to red blood cells in tumour sections; assay type: in vivo; settings: adjacent red blood cells in Lewis Lung tumour section
T1 construct: from tissue; host or cells: red blood cells in formalin-fixed Lewis Lung tumour sections from antibody-treated mice
T1 sequence (Q9Z1M0 1-595): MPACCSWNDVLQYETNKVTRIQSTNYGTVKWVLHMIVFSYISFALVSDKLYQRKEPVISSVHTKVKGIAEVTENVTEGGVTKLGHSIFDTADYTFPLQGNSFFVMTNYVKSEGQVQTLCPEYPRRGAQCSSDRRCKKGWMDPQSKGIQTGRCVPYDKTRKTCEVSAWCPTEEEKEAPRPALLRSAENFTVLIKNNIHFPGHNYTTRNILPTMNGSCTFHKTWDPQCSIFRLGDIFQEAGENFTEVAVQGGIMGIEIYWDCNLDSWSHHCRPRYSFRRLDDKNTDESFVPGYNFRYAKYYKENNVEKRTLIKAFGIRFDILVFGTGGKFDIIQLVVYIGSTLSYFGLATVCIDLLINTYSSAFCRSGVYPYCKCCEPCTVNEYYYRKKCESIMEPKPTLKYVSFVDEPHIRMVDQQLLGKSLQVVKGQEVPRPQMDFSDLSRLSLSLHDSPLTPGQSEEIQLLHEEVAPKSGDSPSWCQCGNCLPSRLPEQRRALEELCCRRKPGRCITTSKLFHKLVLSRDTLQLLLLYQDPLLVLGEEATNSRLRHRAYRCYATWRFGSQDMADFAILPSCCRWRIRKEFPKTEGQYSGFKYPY
Protocol: Female BALB/c mice inoculated with the orthotopic syngeneic 4T1 murine mammary tumours in their third mammary fat pads or NOD/SCID female mice inoculated with the orthotopic human Hep3b xenograft tumour in their livers were treated intravenously with either a human domain antibody (2-2-1 hFc) directed at a monomeric target (epitope E200 on P2X7) or 2F6-hIgG1 directed at the compound epitope E200-300. All procedures approved by the Animal Ethics Committee at The University of Adelaide (M46-2008). Antibody penetration into the tumours was measured using Jackson Immunosearch goat anti-human antibody on tumour sections that were removed from the mice two days post antibody treatment. The tumours were fixed in 10% neutral buffered formalin for 48 hours, embedded in paraffin, sectioned to 5 um, deparaffinized, and stained for human antibody. The Biocare Mach 4 secondary detection system was used, comprising a specific goat antibody probe followed by a polymer with HRP then stained with DAB.

Lewis Lung (LL) tumour = assay: Lewis Lung (LL) syngeneic xenograft model, lung metastases; assay type: in vivo, mouse; settings: Day 11
Protocol: as §1, §2, §3
The syngeneic Lewis Lung model was used with additional control groups. Besides the PBS control group of ten mice (Group 1), a positive control group using daily Sorafenib at 5 mL/kg was included (Group 5) along with antibody treatment groups consisting of sheep affinity purified E200-300 polyclonal antibody at 10 mg/kg (Group 2), 2F6-hIgG1 at 1 mg/kg (Group 3) and 2F6-hIgG1 at 10 mg/kg (Group 4).

B1: 2F6 hIgG1: mouse scFv from 2F6 grafted into a human format of type IgG1, expressed in HEK293 cells (antibody, V domains shown)
VH: DVKLVESGGGLVKLGGSLKLSCAASGFTFSSYYMSWVRQTPEKRLELVAAINSNGGSTYYPDTVKGRFTISRDNAKNTLYLQMSSLKSEDTAFYYCTRHYSSRFFDVWGAGTTVTVSS
VL: MADIVMTQSQKFMSTSVGDRVSVTCKASQNVGTNVAWYQQKPGQSPKALIYSASFRYSGVPDRFTGSGSGTDFTLTISNVQSEDLAEFFCQQYNSYPFTFGSGTRLEIK
Question: For B1, which “number of lung metastases” value ([1]; BALBc mice, i.v. every 3 days) is on record?
Answer: 3.4±0.7

Question: And the average metastasis volume [1]?
Answer: 1.28 mm^3

Question: And the “average metastasis volume, % of control” value [1]?
Answer: 22%

Question: And the “number of lung metastases, % of control” value [1]?
Answer: 53%

Question: And the total metastasis volume [1]?
Answer: 43 mm^3

Question: And the “total metastasis volume, % of control” value [1]?
Answer: 11.8%

Question: And the “reduction of total metastasis volume” value ([1]; listed as 2F6-hIgG1)?
Answer: 88%

Question: And the “reduction of total metastasis volume” value ([1]; listed as 2F6hIgG1)?
Answer: 89%

Question: What about the “labelling of red blood cells” value [2] of the same molecule?
Answer: entirely unlabelled

Question: What about the “Mean Lung Surface Mets” value (Lewis Lung (LL) tumour; antibody 1 mg/kg i.v. every 3 days) of the same molecule?
Answer: 0.9

Question: What about the “Mean Lung Surface Mets” value (Lewis Lung (LL) tumour; antibody 10 mg/kg i.v. every 3 days) of the same molecule?
Answer: 0.2

Question: What about the “inhibition of lung metastases relative to PBS control” value (Lewis Lung (LL) tumour; antibody 10 mg/kg) of the same molecule?
Answer: 96%
